# Data: paper doi:10.1101/2023.06.22.546118 (bioRxiv, 2023)
# T1: HSV-1 UL31 full length (1-306) with R229L (SUP_UL31) (herpes simplex virus 1 (HSV-1), UniProt P10215 1-306, R229L)
# T1 sequence: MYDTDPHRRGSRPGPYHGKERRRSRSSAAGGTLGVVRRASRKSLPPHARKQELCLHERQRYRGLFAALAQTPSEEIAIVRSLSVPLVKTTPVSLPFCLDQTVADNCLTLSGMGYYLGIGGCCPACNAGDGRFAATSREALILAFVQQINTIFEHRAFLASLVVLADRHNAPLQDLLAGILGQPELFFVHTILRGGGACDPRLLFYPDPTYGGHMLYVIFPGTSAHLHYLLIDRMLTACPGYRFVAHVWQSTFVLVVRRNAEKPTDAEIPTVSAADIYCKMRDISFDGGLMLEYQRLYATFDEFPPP
# T2: HSV-1 UL31 full length (1-306), wild type (herpes simplex virus 1 (HSV-1), UniProt P10215 1-306)
# T2 sequence: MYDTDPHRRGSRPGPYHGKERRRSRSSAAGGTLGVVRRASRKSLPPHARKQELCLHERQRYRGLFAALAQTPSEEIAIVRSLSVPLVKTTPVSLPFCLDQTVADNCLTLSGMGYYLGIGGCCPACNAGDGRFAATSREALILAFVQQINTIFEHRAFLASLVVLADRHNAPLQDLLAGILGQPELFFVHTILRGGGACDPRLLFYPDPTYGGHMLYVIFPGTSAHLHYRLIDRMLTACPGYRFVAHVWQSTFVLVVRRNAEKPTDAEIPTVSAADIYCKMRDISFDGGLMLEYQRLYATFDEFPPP
# Key:
# [1] = target: T1, HSV-1 UL31 full length (1-306) with …; assay: cryo-EM structure
# [2] = target: T1, HSV-1 UL31 full length (1-306) with …; assay: SEC
# [3] = target: T2, HSV-1 UL31 full length (1-306), wild …; assay: SEC
# [4] = target: T2, HSV-1 UL31 full length (1-306), wild …; assay: cryo-EM structure
# crystal structure = target: the molecule itself; assay: crystal structure
# cryo-EM structure = target: the molecule itself; assay: cryo-EM structure
binder,measurement,setting,value
HSV-1 UL34 residues 1-220 with D35A/E37A (DN_UL34) (domain or fragment) MAGLGKPYTGHPGDAFEGLVQRIRLIVPSTLRGGAGAAGPYSPSSLPSRCAFQFHGHDGSDESFPIEYVLRLMNDWAEVPCNPYLRIQNTGVSVLFQGFFHRPHNAPGGAITPERTNVILGSTETTGLSLGDLDTIKGRLGLDARPMMASMWISCFVRMPRVQLAFRFMGPEDAGRTRRILCRAAEQAITRRRRTRRSREAYGAEAGLGVAGTGFRARGD,binding result,[1],binds
HSV-1 UL34 residues 1-220 with K137A (domain or fragment) MAGLGKPYTGHPGDAFEGLVQRIRLIVPSTLRGGDGEAGPYSPSSLPSRCAFQFHGHDGSDESFPIEYVLRLMNDWAEVPCNPYLRIQNTGVSVLFQGFFHRPHNAPGGAITPERTNVILGSTETTGLSLGDLDTIAGRLGLDARPMMASMWISCFVRMPRVQLAFRFMGPEDAGRTRRILCRAAEQAITRRRRTRRSREAYGAEAGLGVAGTGFRARGD,binding result,[2],binds
same,binding result,[3],binds
HSV-1 UL34 residues 1-220 with K137A/R139A (domain or fragment) MAGLGKPYTGHPGDAFEGLVQRIRLIVPSTLRGGDGEAGPYSPSSLPSRCAFQFHGHDGSDESFPIEYVLRLMNDWAEVPCNPYLRIQNTGVSVLFQGFFHRPHNAPGGAITPERTNVILGSTETTGLSLGDLDTIAGALGLDARPMMASMWISCFVRMPRVQLAFRFMGPEDAGRTRRILCRAAEQAITRRRRTRRSREAYGAEAGLGVAGTGFRARGD,binding result,[2],binds
same,binding result,[3],binds
HSV-1 UL34 residues 1-220 with R139A (domain or fragment) MAGLGKPYTGHPGDAFEGLVQRIRLIVPSTLRGGDGEAGPYSPSSLPSRCAFQFHGHDGSDESFPIEYVLRLMNDWAEVPCNPYLRIQNTGVSVLFQGFFHRPHNAPGGAITPERTNVILGSTETTGLSLGDLDTIKGALGLDARPMMASMWISCFVRMPRVQLAFRFMGPEDAGRTRRILCRAAEQAITRRRRTRRSREAYGAEAGLGVAGTGFRARGD,binding result,[3],binds
"HSV-1 UL34 residues 1-220, wild type (domain or fragment) MAGLGKPYTGHPGDAFEGLVQRIRLIVPSTLRGGDGEAGPYSPSSLPSRCAFQFHGHDGSDESFPIEYVLRLMNDWAEVPCNPYLRIQNTGVSVLFQGFFHRPHNAPGGAITPERTNVILGSTETTGLSLGDLDTIKGRLGLDARPMMASMWISCFVRMPRVQLAFRFMGPEDAGRTRRILCRAAEQAITRRRRTRRSREAYGAEAGLGVAGTGFRARGD",binding result,[4],binds
NEC185Δ50-SUP_(UL31) heterodimer (UL31 51-306 R229L with UL34 15-185) (complex) chain 1: QELCLHERQRYRGLFAALAQTPSEEIAIVRSLSVPLVKTTPVSLPFCLDQTVADNCLTLSGMGYYLGIGGCCPACNAGDGRFAATSREALILAFVQQINTIFEHRAFLASLVVLADRHNAPLQDLLAGILGQPELFFVHTILRGGGACDPRLLFYPDPTYGGHMLYVIFPGTSAHLHYLLIDRMLTACPGYRFVAHVWQSTFVLVVRRNAEKPTDAEIPTVSAADIYCKMRDISFDGGLMLEYQRLYATFDEFPPP chain 2: AFEGLVQRIRLIVPSTLRGGDGEAGPYSPSSLPSRCAFQFHGHDGSDESFPIEYVLRLMNDWAEVPCNPYLRIQNTGVSVLFQGFFHRPHNAPGGAITPERTNVILGSTETTGLSLGDLDTIKGRLGLDARPMMASMWISCFVRMPRVQLAFRFMGPEDAGRTRRILCRAA,stoichiometry N,crystal structure,6
"HSV-1 UL31 residues 51-306 with R229L (SUP_UL31), crystallization construct (domain or fragment) QELCLHERQRYRGLFAALAQTPSEEIAIVRSLSVPLVKTTPVSLPFCLDQTVADNCLTLSGMGYYLGIGGCCPACNAGDGRFAATSREALILAFVQQINTIFEHRAFLASLVVLADRHNAPLQDLLAGILGQPELFFVHTILRGGGACDPRLLFYPDPTYGGHMLYVIFPGTSAHLHYLLIDRMLTACPGYRFVAHVWQSTFVLVVRRNAEKPTDAEIPTVSAADIYCKMRDISFDGGLMLEYQRLYATFDEFPPP",binding result,crystal structure,binds
NEC185Δ50-DN_(UL34)/SUP_(UL31) heterodimer (UL31 51-306 R229L with UL34 15-185 D35A/E37A) (complex) chain 1: QELCLHERQRYRGLFAALAQTPSEEIAIVRSLSVPLVKTTPVSLPFCLDQTVADNCLTLSGMGYYLGIGGCCPACNAGDGRFAATSREALILAFVQQINTIFEHRAFLASLVVLADRHNAPLQDLLAGILGQPELFFVHTILRGGGACDPRLLFYPDPTYGGHMLYVIFPGTSAHLHYLLIDRMLTACPGYRFVAHVWQSTFVLVVRRNAEKPTDAEIPTVSAADIYCKMRDISFDGGLMLEYQRLYATFDEFPPP chain 2: AFEGLVQRIRLIVPSTLRGGAGAAGPYSPSSLPSRCAFQFHGHDGSDESFPIEYVLRLMNDWAEVPCNPYLRIQNTGVSVLFQGFFHRPHNAPGGAITPERTNVILGSTETTGLSLGDLDTIKGRLGLDARPMMASMWISCFVRMPRVQLAFRFMGPEDAGRTRRILCRAA,binding result,crystal structure,binds
"NEC220, wild-type soluble HSV-1 nuclear egress complex (UL31 1-306 with UL34 1-220) (complex) chain 1: MYDTDPHRRGSRPGPYHGKERRRSRSSAAGGTLGVVRRASRKSLPPHARKQELCLHERQRYRGLFAALAQTPSEEIAIVRSLSVPLVKTTPVSLPFCLDQTVADNCLTLSGMGYYLGIGGCCPACNAGDGRFAATSREALILAFVQQINTIFEHRAFLASLVVLADRHNAPLQDLLAGILGQPELFFVHTILRGGGACDPRLLFYPDPTYGGHMLYVIFPGTSAHLHYRLIDRMLTACPGYRFVAHVWQSTFVLVVRRNAEKPTDAEIPTVSAADIYCKMRDISFDGGLMLEYQRLYATFDEFPPP chain 2: MAGLGKPYTGHPGDAFEGLVQRIRLIVPSTLRGGDGEAGPYSPSSLPSRCAFQFHGHDGSDESFPIEYVLRLMNDWAEVPCNPYLRIQNTGVSVLFQGFFHRPHNAPGGAITPERTNVILGSTETTGLSLGDLDTIKGRLGLDARPMMASMWISCFVRMPRVQLAFRFMGPEDAGRTRRILCRAAEQAITRRRRTRRSREAYGAEAGLGVAGTGFRARGD",binding result,cryo-EM structure,binds
NEC220-SUP_(UL31) (UL31 1-306 R229L with UL34 1-220) (complex) chain 1: MYDTDPHRRGSRPGPYHGKERRRSRSSAAGGTLGVVRRASRKSLPPHARKQELCLHERQRYRGLFAALAQTPSEEIAIVRSLSVPLVKTTPVSLPFCLDQTVADNCLTLSGMGYYLGIGGCCPACNAGDGRFAATSREALILAFVQQINTIFEHRAFLASLVVLADRHNAPLQDLLAGILGQPELFFVHTILRGGGACDPRLLFYPDPTYGGHMLYVIFPGTSAHLHYLLIDRMLTACPGYRFVAHVWQSTFVLVVRRNAEKPTDAEIPTVSAADIYCKMRDISFDGGLMLEYQRLYATFDEFPPP chain 2: MAGLGKPYTGHPGDAFEGLVQRIRLIVPSTLRGGDGEAGPYSPSSLPSRCAFQFHGHDGSDESFPIEYVLRLMNDWAEVPCNPYLRIQNTGVSVLFQGFFHRPHNAPGGAITPERTNVILGSTETTGLSLGDLDTIKGRLGLDARPMMASMWISCFVRMPRVQLAFRFMGPEDAGRTRRILCRAAEQAITRRRRTRRSREAYGAEAGLGVAGTGFRARGD,binding result,cryo-EM structure,binds
NEC220-DN_(UL34)/SUP_(UL31) (UL31 1-306 R229L with UL34 1-220 D35A/E37A) (complex) chain 1: MYDTDPHRRGSRPGPYHGKERRRSRSSAAGGTLGVVRRASRKSLPPHARKQELCLHERQRYRGLFAALAQTPSEEIAIVRSLSVPLVKTTPVSLPFCLDQTVADNCLTLSGMGYYLGIGGCCPACNAGDGRFAATSREALILAFVQQINTIFEHRAFLASLVVLADRHNAPLQDLLAGILGQPELFFVHTILRGGGACDPRLLFYPDPTYGGHMLYVIFPGTSAHLHYLLIDRMLTACPGYRFVAHVWQSTFVLVVRRNAEKPTDAEIPTVSAADIYCKMRDISFDGGLMLEYQRLYATFDEFPPP chain 2: MAGLGKPYTGHPGDAFEGLVQRIRLIVPSTLRGGAGAAGPYSPSSLPSRCAFQFHGHDGSDESFPIEYVLRLMNDWAEVPCNPYLRIQNTGVSVLFQGFFHRPHNAPGGAITPERTNVILGSTETTGLSLGDLDTIKGRLGLDARPMMASMWISCFVRMPRVQLAFRFMGPEDAGRTRRILCRAAEQAITRRRRTRRSREAYGAEAGLGVAGTGFRARGD,binding result,cryo-EM structure,binds
